For one data set, the target named is thrombin (FIIa) (UniProt P00734;P00734 315-363;364-622). Kind of data set: filter binding.
The target of the next data set is FVIII (UniProt P00451 20-2351). The data set can be described thus: filter binding.
The next data set has as its target FX (UniProt P00742;P00742 41-179;183-488). Kind of data set: filter binding.
In the next data set the target is FXa (UniProt P00742;P00742 41-179;235-488). Kind of data set: filter binding.
The next data set has as its target prothrombin (FII) (UniProt P00734 44-622). The data set can be described thus: filter binding.
For data set [1], the target named is T1, modified FV (B-domain-truncated factor V) (human, UniProt P12259 29-838+1520-2224, R737Q;R1573Q;internal_change). Kind of data set: filter binding.
The target in data set [2] is T2, FVa (activated factor V) (human, UniProt P12259;P12259 29-737;1574-2224). The data set can be described thus: filter binding.
Another data set addresses FVa light chain (UniProt P12259 1574-2224). The data set can be described thus: SPR. (In general: Surface plasmon resonance follows binding to a sensor surface in real time, without labels.)
The next data set deals with FVa heavy chain (UniProt P12259 29-737). The data set can be described thus: SPR.
In data set [3] the target is T2, FVa (activated factor V). The data set can be described thus: SPR.
The target of data set [4] is T1, modified FV (B-domain-truncated factor …). Kind of data set: SPR.
Data set [5] concerns the target T2, FVa (activated factor V). The data set can be described thus: filter binding. This is another data set of the same source.

FVIII, sequence (P00451 20-2351): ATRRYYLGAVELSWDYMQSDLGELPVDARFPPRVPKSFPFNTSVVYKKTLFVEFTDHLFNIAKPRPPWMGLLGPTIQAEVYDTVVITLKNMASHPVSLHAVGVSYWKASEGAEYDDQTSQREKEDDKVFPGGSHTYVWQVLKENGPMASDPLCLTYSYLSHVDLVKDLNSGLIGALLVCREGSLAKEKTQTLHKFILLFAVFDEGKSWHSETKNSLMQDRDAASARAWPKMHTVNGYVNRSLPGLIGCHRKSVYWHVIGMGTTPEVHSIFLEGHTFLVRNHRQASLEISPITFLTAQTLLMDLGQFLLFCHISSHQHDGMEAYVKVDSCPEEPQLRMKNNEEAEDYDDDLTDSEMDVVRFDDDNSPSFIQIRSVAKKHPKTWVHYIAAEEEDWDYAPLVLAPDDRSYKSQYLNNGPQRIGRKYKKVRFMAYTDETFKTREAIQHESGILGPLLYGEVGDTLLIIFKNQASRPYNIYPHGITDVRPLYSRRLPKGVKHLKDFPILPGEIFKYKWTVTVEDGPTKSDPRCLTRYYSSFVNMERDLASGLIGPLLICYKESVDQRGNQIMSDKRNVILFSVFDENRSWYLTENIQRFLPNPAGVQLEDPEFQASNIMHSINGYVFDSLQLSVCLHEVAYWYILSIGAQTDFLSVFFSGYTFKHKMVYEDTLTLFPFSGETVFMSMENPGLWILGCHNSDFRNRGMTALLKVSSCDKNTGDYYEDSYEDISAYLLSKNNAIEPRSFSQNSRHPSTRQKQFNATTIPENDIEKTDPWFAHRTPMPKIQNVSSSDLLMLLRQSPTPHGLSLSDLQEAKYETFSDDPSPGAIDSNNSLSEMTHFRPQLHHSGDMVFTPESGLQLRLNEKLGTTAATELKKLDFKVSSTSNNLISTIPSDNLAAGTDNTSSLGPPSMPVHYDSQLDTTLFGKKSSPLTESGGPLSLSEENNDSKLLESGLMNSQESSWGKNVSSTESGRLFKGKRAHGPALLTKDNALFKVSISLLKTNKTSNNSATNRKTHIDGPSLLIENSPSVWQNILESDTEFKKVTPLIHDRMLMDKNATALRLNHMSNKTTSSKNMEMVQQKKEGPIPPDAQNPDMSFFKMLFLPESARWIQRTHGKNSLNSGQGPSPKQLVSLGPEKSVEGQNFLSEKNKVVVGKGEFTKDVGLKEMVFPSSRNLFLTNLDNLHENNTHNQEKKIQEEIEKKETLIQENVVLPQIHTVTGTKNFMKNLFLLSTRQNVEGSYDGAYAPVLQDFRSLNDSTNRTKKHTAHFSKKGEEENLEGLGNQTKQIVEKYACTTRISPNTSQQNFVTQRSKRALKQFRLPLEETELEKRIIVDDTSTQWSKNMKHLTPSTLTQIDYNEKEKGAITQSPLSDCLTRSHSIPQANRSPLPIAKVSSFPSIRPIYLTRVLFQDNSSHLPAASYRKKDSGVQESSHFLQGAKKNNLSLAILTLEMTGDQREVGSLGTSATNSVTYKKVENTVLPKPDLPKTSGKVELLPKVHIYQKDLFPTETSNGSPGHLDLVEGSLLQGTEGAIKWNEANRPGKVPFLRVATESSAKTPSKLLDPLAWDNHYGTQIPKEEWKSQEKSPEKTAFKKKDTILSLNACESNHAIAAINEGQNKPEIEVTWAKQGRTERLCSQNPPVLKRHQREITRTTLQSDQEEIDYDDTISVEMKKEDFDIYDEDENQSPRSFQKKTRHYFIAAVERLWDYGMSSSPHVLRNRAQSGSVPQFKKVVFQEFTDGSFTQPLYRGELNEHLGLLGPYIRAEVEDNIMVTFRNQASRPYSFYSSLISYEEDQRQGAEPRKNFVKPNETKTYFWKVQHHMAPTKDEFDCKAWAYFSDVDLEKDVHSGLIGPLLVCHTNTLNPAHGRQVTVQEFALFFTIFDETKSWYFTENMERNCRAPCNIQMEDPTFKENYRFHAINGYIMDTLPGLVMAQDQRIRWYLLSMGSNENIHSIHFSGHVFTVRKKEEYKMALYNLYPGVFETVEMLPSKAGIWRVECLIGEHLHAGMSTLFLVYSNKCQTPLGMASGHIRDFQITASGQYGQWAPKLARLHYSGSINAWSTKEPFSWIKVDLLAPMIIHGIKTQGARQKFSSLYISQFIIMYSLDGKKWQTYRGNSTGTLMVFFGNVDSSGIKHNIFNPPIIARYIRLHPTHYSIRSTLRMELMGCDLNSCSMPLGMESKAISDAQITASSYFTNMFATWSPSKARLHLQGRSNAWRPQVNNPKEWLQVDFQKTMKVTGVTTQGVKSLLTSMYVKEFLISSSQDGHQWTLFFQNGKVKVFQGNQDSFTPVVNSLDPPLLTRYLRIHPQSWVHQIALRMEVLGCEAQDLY
FX, sequence (P00742 41-179, chain 1 of 2): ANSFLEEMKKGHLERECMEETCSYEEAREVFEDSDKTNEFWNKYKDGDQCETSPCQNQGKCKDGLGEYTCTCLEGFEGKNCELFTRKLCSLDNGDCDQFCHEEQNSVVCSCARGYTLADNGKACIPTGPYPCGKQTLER
FX, sequence (P00742 183-488, chain 2 of 2): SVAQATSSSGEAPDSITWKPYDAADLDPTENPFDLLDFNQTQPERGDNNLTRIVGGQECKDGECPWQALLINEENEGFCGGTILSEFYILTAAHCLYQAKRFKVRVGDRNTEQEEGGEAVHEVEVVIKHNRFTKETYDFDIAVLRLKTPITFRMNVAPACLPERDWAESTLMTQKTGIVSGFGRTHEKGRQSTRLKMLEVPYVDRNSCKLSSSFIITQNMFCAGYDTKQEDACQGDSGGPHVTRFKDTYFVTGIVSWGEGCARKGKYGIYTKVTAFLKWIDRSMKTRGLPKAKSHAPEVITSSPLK
FXa, sequence (P00742 41-179, chain 1 of 2): as the sequence (P00742 41-179, chain 1 of 2) above
FXa, sequence (P00742 235-488, chain 2 of 2): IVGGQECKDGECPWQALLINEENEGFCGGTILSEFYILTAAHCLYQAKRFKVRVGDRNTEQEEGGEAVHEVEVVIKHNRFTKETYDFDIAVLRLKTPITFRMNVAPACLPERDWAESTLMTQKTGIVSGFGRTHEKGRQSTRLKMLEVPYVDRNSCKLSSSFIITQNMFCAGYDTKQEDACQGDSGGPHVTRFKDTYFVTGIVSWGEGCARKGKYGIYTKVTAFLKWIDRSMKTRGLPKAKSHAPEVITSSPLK

B1: T18.3 (structured_RNA)
RNA: GGACUUGGAUAACCUCACCGCAAUGGCGGCUUGUCAGACGACUCGCUGAGGAUCCGAG
modifications: all C and U 2'-fluoro
What is called Kd is the concentration at which binding is half-saturated. In the case of B1, the binding result with thrombin (FIIa), in the data set with FVIII, in the data set with FX, in the data set with FXa and in the data set with prothrombin (FII) was “no binding” in each case. The Kd in [1] was determined as 28 nM; with FVa (activated factor V) [2], 0.99 nM.

B2: T18.3-Bio (structured_RNA)
RNA: GGACUUGGAUAACCUCACCGCAAUGGCGGCUUGUCAGACGACUCGCUGAGGAUCCGAG
modifications: all C and U 2'-fluoro
Regarding B2, the Kd turned out to be 3.33 ± 0.69 nM with FVa light chain, 113 ± 43 nM in the data set with FVa heavy chain, 4.73 ± 0.69 nM with FVa (activated factor V) [3] and 11.4 ± 3 nM in data set [4].

B3: Mut1 (structured_RNA)
RNA: GGACUUGGAUAACCUCACCGCAAUGGCGGAGGGUCAGACGACUCGCUGAGGAUCCGAG
modifications: all C and U 2'-fluoro
On to B3, for which the values for the Kd (in the data set with FVa (activated factor V) [5]; in data set [1]) were 359 ± 323 nM and 410 ± 46 nM, respectively.

For the origin of these results see paper PMC8808741.
